Reference: the supplement of paper PMC5998384

Experiments:
HeLa Kyoto [1] = assay: solubility in G1/S (NP-40 vs SDS abundance) (log2 ratio); higher = more soluble; conditions: cell cycle stage: G1/S
HeLa Kyoto [2] = assay: solubility change mitosis vs G1/S (difference of NP-40 vs SDS log2 ratios) (log2 ratio difference); higher = more soluble in mitosis
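For solubility change mitosis vs G1/S (difference of NP-40 vs SDS log2 ratios) in this document: synchronized HeLa Kyoto cells (double thymidine block for G1/S, nocodazole release for mitosis), protein amounts in NP-40 versus SDS lysates quantified by mass spectrometry, three biological replicates.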
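For solubility in G1/S (NP-40 vs SDS abundance) in this document: HeLa Kyoto cells arrested at G1/S by double thymidine block, proteins quantified by TMT10plex mass spectrometry in mild NP-40 versus SDS extracts, three biological replicates.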

Sequence of KLF16 (chain, as listed by the source): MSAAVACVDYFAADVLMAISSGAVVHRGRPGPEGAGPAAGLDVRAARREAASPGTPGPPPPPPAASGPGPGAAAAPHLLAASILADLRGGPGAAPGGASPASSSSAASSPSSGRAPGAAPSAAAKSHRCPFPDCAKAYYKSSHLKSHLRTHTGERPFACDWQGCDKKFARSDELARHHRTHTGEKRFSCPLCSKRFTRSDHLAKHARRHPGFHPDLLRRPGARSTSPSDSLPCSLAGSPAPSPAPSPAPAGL

| Substance | solubility in G1/S (log2) (HeLa Kyoto [1]) | solubility change mitosis (log2) (HeLa Kyoto [2]) |
| --- | --- | --- |
| MPCVQAQYSPSPPGSSYAAQTYSSEYTTEIMNPDYTKLTMDLGSTEITATATTSLPSISTFVEGYSSNYELKPSCVYQMQRPLIKVEEGRAPSYHHHHHHHHHHHHHHQQQHQQPSIPPASSPEDEVLPSTSMYFKQSPPSTPTTPAFPPQAGALWDEALPSAPGCIAPGPLLDPPMKAVPTVAGARFPLFHFKPSPPHPPAPSPAGGHHLGYDPTAAAALSLPLGAAAAAGSQAAALESHPYGLPLAKRAAPLAFPPLGLTPSPTASSLLGESPSLPSPPSRSSSSGEGTCAVCGDNAACQHYGVRTCEGCKGFFKRTVQKNAKYVCLANKNCPVDKRRRNRCQYCRFQKCLSVGMVKEVVRTDSLKGRRGRLPSKPKSPLQQEPSQPSPPSPPICMMNALVRALTDSTPRDLDYSRYCPTDQAAAGTDAEHVQQFYNLLTASIDVSRSWAEKIPGFTDLPKEDQTLLIESAFLELFVLRLSIRSNTAEDKFVFCNGLVLHRLQCLRGFGEWLDSIKDFSLNLQSLNLDIQALACLSALSMITERHGLKEPKRVEELCNKITSSLKDHQSKGQALEPTESKVLGALVELRKICTLGLQRIFYLKLEDLVSPPSIIDKLFLDTLPF [NR4A3] | -0.0603 | -0.0421 |
| KLF16 | 0.106 | 0.0196 |
| HECTD4 | -0.212 | 0.00851 |
| MAAAEEGCSVGAEADRELEELLESALDDFDKAKPSPAPPSTTTAPDASGPQKRSPGDTAKDALFASQEKFFQELFDSELASQATAEFEKAMKELAEEEPHLVEQFQKLSEAAGRVGSDMTSQQEFTSCLKETLSGLAKNATDLQNSSMSEEELTKAMEGLGMDEGDGEGNILPIMQSIMQNLLSKDVLYPSLKEITEKYPEWLQSHRESLPPEQFEKYQEQHSVMCKICEQFEAETPTDSETTQKARFEMVLDLMQQLQDLGHPPKELAGEMPPGLNFDLDALNLSGPPGASGEQCLIM [PEX19] | -0.302 | 0.402 |
| MAALTPRKRKQDSLKCDSLLHFTENLFPSPNKKHCFYQNSDKNEENLHCSQQEHFVLSALKTTEINRLPSANQGSPFKSALSTVSFYNQNKWYLNPLERKLIKESRSTCLKTNDEDKSFPIVTEKMQGKPVCSKKNNKKPQKSLTAKYQPKYRHIKPVSRNSRNSKQNRVIYKPIVEKENNCHSAENNSNAPRVLSQKIKPQVTLQGGAAFFVRKKSSLRKSSLENEPSLGRTQKSKSEVIEDSDVETVSEKKTFATRQVPKCLVLEEKLKIGLLSASSKNKEKLIKDSSDDRVSSKEHKVDKNEAFSSEDSLGENKTISPKSTVYPIFSASSVNSKRSLGEEQFSVGSVNFMKQTNIQKNTNTRDTSKKTKDQLIIDAGQKHFGATVCKSCGMIYTASNPEDEMQHVQHHHRFLEGIKYVGWKKERVVAEFWDGKIVLVLPHDPSFAIKKVEDVQELVDNELGFQQVVPKCPNKIKTFLFISDEKRVVGCLIAEPIKQAFRVLSEPIGPESPSSTECPRAWQCSDVPEPAVCGISRIWVFRLKRRKRIARRLVDTLRNCFMFGCFLSTDEIAFSDPTPDGKLFATKYCNTPNFLVYNFNS [ESCO2] | -0.994 | 0.997 |
| PEAK1 | -0.569 | 0.302 |
| MRPKTFPATTYSGNSRQRLQEIREGLKQPSKSSVQGLPAGPNSDTSLDAKVLGSKDATRQQQQMRATPKFGPYQKALREIRYSLLPFANESGTSAAAEVNRQMLQELVNAGCDQEMAGRALKQTGSRSIEAALEYISKMGYLDPRNEQIVRVIKQTSPGKGLMPTPVTRRPSFEGTGDSFASYHQLSGTPYEGPSFGADGPTALEEMPRPYVDYLFPGVGPHGPGHQHQHPPKGYGASVEAAGAHFPLQGAHYGRPHLLVPGEPLGYGVQRSPSFQSKTPPETGGYASLPTKGQGGPPGAGLAFPPPAAGLYVPHPHHKQAGPAAHQLHVLGSRSQVFASDSPPQSLLTPSRNSLNVDLYELGSTSVQQWPAATLARRDSLQKPGLEAPPRAHVAFRPDCPVPSRTNSFNSHQPRPGPPGKAEPSLPAPNTVTAVTAAHILHPVKSVRVLRPEPQTAVGPSHPAWVPAPAPAPAPAPAPAAEGLDAKEEHALALGGAGAFPLDVEYGGPDRRCPPPPYPKHLLLRSKSEQYDLDSLCAGMEQSLRAGPNEPEGGDKSRKSAKGDKGGKDKKQIQTSPVPVRKNSRDEEKRESRIKSYSPYAFKFFMEQHVENVIKTYQQKVNRRLQLEQEMAKAGLCEAEQEQMRKILYQKESNYNRLKRAKMDKSMFVKIKTLGIGAFGEVCLACKVDTHALYAMKTLRKKDVLNRNQVAHVKAERDILAEADNEWVVKLYYSFQDKDSLYFVMDYIPGGDMMSLLIRMEVFPEHLARFYIAELTLAIESVHKMGFIHRDIKPDNILIDLDGHIKLTDFGLCTGFRWTHNSKYYQKGSHVRQDSMEPSDLWDDVSNCRCGDRLKTLEQRARKQHQRCLAHSLVGTPNYIAPEVLLRKGYTQLCDWWSVGVILFEMLVGQPPFLAPTPTETQLKVINWENTLHIPAQVKLSPEARDLITKLCCSADHRLGRNGADDLKAHPFFSAIDFSSDIRKQPAPYVPTISHPMDTSNFDPVDEESPWNDASEGSTKAWDTLTSPNNKHPEHAFYEFTFRRFFDDNGYPFRCPKPSGAEASQAESSDLESSDLVDQTEGCQPVYV [LATS2] | 0.178 | -0.0575 |
| MSVDKAELCGSLLTWLQTFHVPSPCASPQDLSSGLAVAYVLNQIDPSWFNEAWLQGISEDPGPNWKLKVSNLKMVLRSLVEYSQDVLAHPVSEEHLPDVSLIGEFSDPAELGKLLQLVLGCAISCEKKQDHIQRIMTLEESVQHVVMEAIQELMTKDTPDSLSPETYGNFDSQSRRYYFLSEEAEEGDELQQRCLDLERQLMLLSEEKQSLAQENAGLRERMGRPEGEGTPGLTAKKLLLLQSQLEQLQEENFRLESGREDERLRCAELEREVAELQHRNQALTSLAQEAQALKDEMDELRQSSERAGQLEATLTSCRRRLGELRELRRQVRQLEERNAGHAERTRQLEDELRRAGSLRAQLEAQRRQVQELQGQRQEEAMKAEKWLFECRNLEEKYESVTKEKERLLAERDSLREANEELRCAQLQPRGLTQADPSLDPTSTPVDNLAAEILPAELRETLLRLQLENKRLCRQEAADRERQEELQRHLEDANRARHGLETQHRLNQQQLSELRAQVEDLQKALQEQGGKTEDAISILLKRKLEEHLQKLHEADLELQRKREYIEELEPPTDSSTARRIEELQHNLQKKDADLRAMEERYRRYVDKARMVMQTMEPKQRPAAGAPPELHSLRTQLRERDVRIRHLEMDFEKSRSQREQEEKLLISAWYNMGMALQQRAGEERAPAHAQSFLAQQRLATNSRRGPLGRLASLNLRPTDKH [HOOK2] | 0.231 | -0.0619 |
| MLGTLRAMEGEDVEDDQLLQKLRASRRRFQRRMQRLIEKYNQPFEDTPVVQMATLTYETPQGLRIWGGRLIKERNEGEIQDSSMKPADRTDGSVQAAAWGPELPSHRTVLGADSKSGEVDATSDQEESVAWALAPAVPQSPLKNELRRKYLTQVDILLQGAEYFECAGNRAGRDVRVTPLPSLASPAVPAPGYCSRISRKSPGDPAKPASSPREWDPLHPSSTDMALVPRNDSLSLQETSSSSFLSSQPFEDDDICNVTISDLYAGMLHSMSRLLSTKPSSIISTKTFIMQNWNSRRRHRYKSRMNKTYCKGARRSQRSSKENFIPCSEPVKGTGALRDCKNVLDVSCRKTGLKLEKAFLEVNRPQIHKLDPSWKERKVTPSKYSSLIYFDSSATYNLDEENRFRTLKWLISPVKIVSRPTIRQGHGENRQREIEIRFDQLHREYCLSPRNQPRRMCLPDSWAMNMYRGGPASPGGLQGLETRRLSLPSSKAKAKSLSEAFENLGKRSLEAGRCLPKSDSSSSLPKTNPTHSATRPQQTSDLHVQGNSSGIFRKSVSPSKTLSVPDKEVPGHGRNRYDEIKEEFDKLHQKYCLKSPGQMTVPLCIGVSTDKASMEVRYQTEGFLGKLNPDPHFQGFQKLPSSPLGCRKSLLGSTAIEAPSSTCVARAITRDGTRDHQFPAKRPRLSEPQGSGRQGNSLGASDGVDNTVRPGDQGSSSQPNSEERGENTSYRMEEKSDFMLEKLETKSV [HJURP] | -0.154 | 0.197 |
| MQRAVPEGFGRRKLGSDMGNAERAPGSRSFGPVPTLLLLAAALLAVSDALGRPSEEDEELVVPELERAPGHGTTRLRLHAFDQQLDLELRPDSSFLAPGFTLQNVGRKSGSETPLPETDLAHCFYSGTVNGDPSSAAALSLCEGVRGAFYLLGEAYFIQPLPAASERLATAAPGEKPPAPLQFHLLRRNRQGDVGGTCGVVDDEPRPTGKAETEDEDEGTEGEDEGAQWSPQDPALQGVGQPTGTGSIRKKRFVSSHRYVETMLVADQSMAEFHGSGLKHYLLTLFSVAARLYKHPSIRNSVSLVVVKILVIHDEQKGPEVTSNAALTLRNFCNWQKQHNPPSDRDAEHYDTAILFTRQDLCGSQTCDTLGMADVGTVCDPSRSCSVIEDDGLQAAFTTAHELGHVFNMPHDDAKQCASLNGVNQDSHMMASMLSNLDHSQPWSPCSAYMITSFLDNGHGECLMDKPQNPIQLPGDLPGTSYDANRQCQFTFGEDSKHCPDAASTCSTLWCTGTSGGVLVCQTKHFPWADGTSCGEGKWCINGKCVNKTDRKHFDTPFHGSWGMWGPWGDCSRTCGGGVQYTMRECDNPVPKNGGKYCEGKRVRYRSCNLEDCPDNNGKTFREEQCEAHNEFSKASFGSGPAVEWIPKYAGVSPKDRCKLICQAKGIGYFFVLQPKVVDGTPCSPDSTSVCVQGQCVKAGCDRIIDSKKKFDKCGVCGGNGSTCKKISGSVTSAKPGYHDIITIPTGATNIEVKQRNQRGSRNNGSFLAIKAADGTYILNGDYTLSTLEQDIMYKGVVLRYSGSSAALERIRSFSPLKEPLTIQVLTVGNALRPKIKYTYFVKKKKESFNAIPTFSAWVIEEWGECSKSCELGWQRRLVECRDINGQPASECAKEVKPASTRPCADHPCPQWQLGEWSSCSKTCGKGYKKRSLKCLSHDGGVLSHESCDPLKKPKHFIDFCTMAECS [ADAMTS1] | -0.34 | -0.192 |
